Assay results from patent US20180037620.

Assays:
Test in all cases: cell_activity
Conditions in all cases: 79/528 porcine fibroblast clones; both TALEN pairs (5-2 and 3-2) plus HR oligo used together
[1] = system: TALEN ETV2 3-2 Right
[2] = system: TALEN ETV2 5-2 Left
[3] = system: TALEN ETV2 3-2 Left
[4] = system: TALEN ETV2 5-2 Right

CCCCTAAGGGTCCTG (double strand) [ETV2 3-2 right half-site]
activity (% of clones homozygous for deletion) [1]: 15

CTGGCCGGAAATCCCC (double strand) [ETV2 5-2 left half-site]
activity (% of clones homozygous for deletion) [2]: 15

GATCCCAAGTCACACC (double strand) [ETV2 3-2 left half-site]
activity (% of clones homozygous for deletion) [3]: 15

GGGCTGCACCAGGCT (double strand) [ETV2 5-2 right half-site]
activity (% of clones homozygous for deletion) [4]: 15
